Data on two substances can be found in patent publication US20020164732A1.

In assay [1] the target is HsdR subunit encoded by the chromosome of the IL1403 strain (L. lactis ssp lactis (strain IL1403)). Briefly: cell-based or functional assay.
Assay [2] addresses HsdM subunit encoded by the chromosome of the IL1403 strain (L. lactis ssp lactis (strain IL1403)). Kind of assay: cell-based or functional assay.

Chain of HsdR subunit encoded by the chromosome of the IL1403 strain (L. lactis ssp lactis (strain IL1403)) (chain, as listed by the source limits assumed): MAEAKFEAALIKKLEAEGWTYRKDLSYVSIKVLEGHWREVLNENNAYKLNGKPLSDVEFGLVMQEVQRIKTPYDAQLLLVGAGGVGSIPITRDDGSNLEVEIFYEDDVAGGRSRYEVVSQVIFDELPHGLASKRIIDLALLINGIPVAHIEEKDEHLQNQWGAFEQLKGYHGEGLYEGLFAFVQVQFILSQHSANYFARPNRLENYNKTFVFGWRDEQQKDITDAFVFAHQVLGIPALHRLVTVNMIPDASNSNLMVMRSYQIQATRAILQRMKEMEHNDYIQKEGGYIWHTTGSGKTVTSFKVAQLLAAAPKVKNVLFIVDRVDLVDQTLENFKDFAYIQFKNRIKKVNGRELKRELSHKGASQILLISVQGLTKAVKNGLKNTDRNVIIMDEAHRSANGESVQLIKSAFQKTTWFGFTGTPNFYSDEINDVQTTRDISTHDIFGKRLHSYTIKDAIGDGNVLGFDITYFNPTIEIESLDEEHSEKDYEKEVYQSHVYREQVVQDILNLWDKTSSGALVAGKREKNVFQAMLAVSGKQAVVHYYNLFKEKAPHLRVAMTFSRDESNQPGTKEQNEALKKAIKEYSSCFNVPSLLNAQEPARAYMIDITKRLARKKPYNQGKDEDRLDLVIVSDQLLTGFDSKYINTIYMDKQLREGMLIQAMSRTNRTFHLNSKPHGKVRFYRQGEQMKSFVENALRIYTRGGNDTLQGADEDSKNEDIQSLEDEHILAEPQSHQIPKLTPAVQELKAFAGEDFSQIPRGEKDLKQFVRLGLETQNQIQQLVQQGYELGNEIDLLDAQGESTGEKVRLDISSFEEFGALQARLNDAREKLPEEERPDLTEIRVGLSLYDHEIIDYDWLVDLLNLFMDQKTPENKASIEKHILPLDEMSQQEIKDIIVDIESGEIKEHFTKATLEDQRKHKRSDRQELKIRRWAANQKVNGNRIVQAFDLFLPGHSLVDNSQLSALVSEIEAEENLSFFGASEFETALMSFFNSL
Chain of HsdM subunit encoded by the chromosome of the IL1403 strain (L. lactis ssp lactis (strain IL1403)) (chain, as listed by the source limits assumed): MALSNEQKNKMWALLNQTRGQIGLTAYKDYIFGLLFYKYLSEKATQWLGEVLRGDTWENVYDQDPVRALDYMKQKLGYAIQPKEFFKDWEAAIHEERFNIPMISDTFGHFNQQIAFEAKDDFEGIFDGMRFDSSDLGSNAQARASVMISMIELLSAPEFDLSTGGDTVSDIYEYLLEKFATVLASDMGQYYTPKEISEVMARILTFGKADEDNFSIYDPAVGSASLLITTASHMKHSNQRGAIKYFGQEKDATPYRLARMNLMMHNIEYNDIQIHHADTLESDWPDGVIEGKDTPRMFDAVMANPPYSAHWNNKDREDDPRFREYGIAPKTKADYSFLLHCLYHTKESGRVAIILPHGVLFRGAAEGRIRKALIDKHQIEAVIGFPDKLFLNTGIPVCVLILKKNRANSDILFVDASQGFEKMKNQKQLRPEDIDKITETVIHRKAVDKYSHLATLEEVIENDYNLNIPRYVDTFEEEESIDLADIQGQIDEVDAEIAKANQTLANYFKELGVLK

For “HsdS subunit encoded by the pIL7 plasmid”, the EOP (efficacy of propagation) of bIL67 phage on IL1403 transformed with pIL7, against IL1403 without plasmids in assay [1] and in assay [2] was 0.006 in each case.
As for “HsdS subunit encoded by the pIL261 plasmid (orf2 of the 3.7 kb EcoRI insert from pIL103)”, the EOP (efficacy of propagation) of bIL67 phage on IL1403 transformed with pIL261, against IL1403 without plasmids in assay [1] and in assay [2] was 6e-07 each time.
